In the RNAGym collection of RNA variant scans (doi:10.1073/pnas.2313332121):

B1: TPR t1 (parent)
chain: GACCAAUCUGCCCUCAGAGCUCGAGAACAUCUUCGGAUGCAGAGGAGGCAGGCUUCGGUGGCGCGAUAGCGCCAACGUCCUCAACCUCCAAUGCAUCCCACCACAUGAUGAUGCCUGAAGAGCCUUGGUUUUUUG

Variants of: B1
Test: polymerase ribozyme fitness, log enrichment relative to wild type (log ratio); higher = more active; in vitro selection for triplet polymerase activity
In short: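 Only genotypes with ≥10 input reads and ≥1 read per output were kept after Illumina sequencing of input and output libraries. These libraries were PCR-built, transcribed mutants of each subunit of a heterodimeric triplet polymerase ribozyme, each put through one triplicate in vitro selection round with frozen incubation at −7 °C, gel excision of extended constructs, streptavidin-bead capture and RT-PCR. Fitness is a logarithmic ratio of genotype enrichment to wild-type enrichment, from inverse-variance-weighted replicate averages, with the logarithm in base 2.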

Row | Variant | polymerase ribozyme fitness (log ratio)
1 | GACCAAUCUGCCCUCAGAGCUCGAGAACAUCUUCGGAUGCAGAGGAGGCAGGCUUCGGUGGCGCGAUAGCGUCAACGUCCUCAACCUCCAAUGCAUCACACCACAUGAUGAUGCCUGAAGAGCCUUGGUUUUUUG | -4.69
2 | GACCAAUCUGCCCUCAGAGCUCGAGAACAUCUUCGGAUGCAGAGGAGGCAGGCUUCGGUGGCGCGAUAGCGUCAACGUCCUCAACCUCCAAUGCAUCCCAUCACAUGAUGAUGCCUGAAGAGCCUUGGUUUUUUG | -0.522
3 | GACCAAUCUGCCCUCAGAGCUCGAGAACAUCUUCGGAUGCAGAGGAGGCAGGCUUCGGUGGCGCGAUAGCGUCAACGUCCUCAACCUCCAAUGCAUCCCACCAAAUGAUGAUGCCUGAAAAUCCUUGGUUAUUUG | -1.54
4 | GACCAAUCUGCCCUCAGAGCUCGAGAACAUCUUCGGAUGCAGAGGAGGCAGGCUUCGGUGGCGCGAUAGCGUCAACGUCCUCAACCUCCAAUGCAUCCCACCACAUGAUGAUGCCUGAAGAGUCUUGGUUUUUUG | 0.155
5 | GACCAAUCUGCCCUCAGAGCUCGAGAACAUCUUCGGAUGCAGAGGAGGCAGGCUUCGGUGGCGCGAUAGCGUCAACAUCCUCAACCUCCAAUGCAUCCCACCACAUGAUGUUACCUGAAGAGCCUUGGUUUUUUG | -5.99
6 | GACCAAUCUGCCCUCAGAGCUCGAGAACAUCUUCGGAUGCAGAGGAGGCAGGCUUCGGUGGCGCGAUAGCGUCAACCUCCUCAACCUCCAAUGCAUCCCACCACAUGAUGAUGUCUGAAGAGCCUUGGUUUUUUG | -2.28
7 | GACCAAUCUGCCCUCAGAGCUCGAGAACAUCUUCGGAUGCAGAGGAGGCAGGCUUCGGUGGCGCGAUAGCGUCAACGUCCUCAACCUCCAAUUCAUCCCACCACAUGAUGAUGCCUGAAGAGGCUUGGUUUUUUG | -1.42
8 | GACCAAUCUGCCCUCAGAGCUCGAGAACAUCUUCGGAUGCAGAGGAGGCAGGCUUCGGUGGCGCGAUAGCGUCAACGUCCUCAACCUCCAAUGCAUCCCACCACAUCAAGAUGCCUGAAGAGCCUUGGUAUUUUG | -5.31
9 | GACCAAUCUGCCCUCAGAGCUCGAGAACAUCUUCGGAUGCAGAGGAGGCAGGCUUCGGUGGCGCGAUAGCGUCAACGUCCUCAACCUCCAAUGCAUCCCACCACAUGAUCAUGCCUGAAGAGCCUUGGUUUUUUG | -4.19
10 | GACCAAUCUGCCCUCAGAGCUCGAGAACAUCUUCGGAUGCAGAGGAGGCAGGCUUCGGUGGCGCGAUAGCGUCAACGUCCUCAACCUCCAAUGCAUCCCACCACAUGAUGAUGCCUAAAGAGCCUUGGUUUUAUG | -1.1
11 | GACCAAUCUGCCCUCAGAGCUCGAGAACAUCUUCGGAUGCAGAGGAGGCAGGCUUCGGUGGCGCGAUAGCGUCAACGUCCUCAACCUCCAAUGCAUCCCACCACAUGAUGAUGCCUGAACAGGCUUGGUUUUUUG | 0.164
12 | GACCAAUCUGCCCUCAGAGCUCGAGAACAUCUUCGGAUGCAGAGGAGGCAGGCUUCGGUGGCGCGAUAGCGUCAACGUCCUCAACCUCCAAUGCAUCCCACCACAUGAUGAUGCCUGAAUAGCCUUGGUUUUUUG | -0.256
13 | GACCAAUCUGCCCUCAGAGCUCGAGAACAUCUUCGGAUGCAGAGGAGGCAGGCUUCGGUGGCGCGAUAGCGUCAACGACCUCAACCUCCAAUGCAUCCCACCACAUGAUGAUGCCUGAAGAGCCUUGGUUUUUUG | -1.19
14 | GACCAAUCUGCCCUCAGAGCUCGAGAACAUCUUCGGAUGCAGAGGAGGCAGGCUUCGGUGGCGCGAUAGCGUCAACGCCCUCAACCUCCAAUGCAUACCACCACAUGAUGAUGCCUGAAGAGCCUUGGUUUUUUG | -4.87
15 | GACCAAUCUGCCCUCAGAGCUCGAGAACAUCUUCGGAUGCAGAGGAGGCAGGCUUCGGUGGCGCGAUAGCGUCAACGCCCUCAACCUCCAAUGCAUCCCACCACACGAUGAUGCCUAUAGAGCCGUGGUUUUUUG | -5.09
16 | GACCAAUCUGCCCUCAGAGCUCGAGAACAUCUUCGGAUGCAGAGGAGGCAGGCUUCGGUGGCGCGAUAGCGUCAACGGCCUCAACCUCCAAUGCAUCCCACCACAUGAUGAUGCUCGAAGAGCCUUGGUUUUUUG | -2.31
17 | GACCAAUCUGCCCUCAGAGCUCGAGAACAUCUUCGGAUGCAGAGGAGGCAGGCUUCGGUGGCGCGAUAGCGUCAACGUCCGCAACCACCAAUGCAUCCCACAACAUGAUGAUGCCUGAAGAGCCUUGGUUUUUUG | -7.12
18 | GACCAAUCUGCCCUCAGAGCUCGAGAACAUCUUCGGAUGCAGAGGAGGCAGGCUUCGGUGGCGCGAUAGCGUCAACGUCCUCAACCUCCAAAGCAUCCCACCACAUGAUGAUGCCUGAAGAGCCUUGGUUUUUUG | -3.15
19 | GACCAAUCUGCCCUCAGAGCUCGAGAACAUCUUCGGAUGCAGAGGAGGCAGGCUUCGGUGGCGCGAUAGCGUCAACGUCCUCAACCUCCAACGCAUCCCACCACAUGAUGAUGCCUGAAGAGCCUUGGUUUUUUG | -0.581
20 | GACCAAUCUGCCCUCAGAGCUCGAGAACAUCUUCGGAUGCAGAGGAGGCAGGCUUCGGUGGCGCGAUAGCGUCAACGUCCUCAACCUCCAAUGCAGCCCACCACAUGAUGAUGCCUGAAGAGCCUUGGUUUUUUG | -1.42
21 | GACCAAUCUGCCCUCAGAGCUCGAGAACAUCUUCGGAUGCAGAGGAGGCAGGCUUCGGUGGCGCGAUAGCGUCAACGUCCUCAACCUCCAAUGCAUCCCACCACACGAUGAUGCCUGAAGAGCCUUGGUUUUUUG | -0.313

Row | Variant | polymerase ribozyme fitness (log ratio)
22 | GACCAAUCUGCCCUCAGAGCUCGAGAACAUCUUCGGAUGCAGAGGAGGCAGGCUUCGGUGGCGCGAUAGCGUCAACGUCCUCAACCUCCAAUGCAUCCCACCACAUGAUGAUGCCAGAAGAGCCUUGGUUUUUUG | -3.04
23 | GACCAAUCUGCCCUCAGAGCUCGAGAACAUCUUCGGAUGCAGAGGAGGCAGGCUUCGGUGGCGCGAUAGCGUCAACGUCCUCAACCUCCAAUGCAUCCCACCACAUGAUGAUGCCAGAAUAGCCUUGGUUUUUUG | -1.54
24 | GACCAAUCUGCCCUCAGAGCUCGAGAACAUCUUCGGAUGCAGAGGAGGCAGGCUUCGGUGGCGCGAUAGCGUCAACGUCCUCAACCUCCAAUGCAUCCCACCACAUGAUGAUGCCUGAAGAGCCUUGGAUUUUUG | -1.42
25 | GACCAAUCUGCCCUCAGAGCUCGAGAACAUCUUCGGAUGCAGAGGAGGCAGGCUUCGGUGGCGCGAUAGCGUCAACGUCCUCAACCUCCAAUGCAUCCCACCACAUGAUGAUGCCUGAAGAGCCUUGGUUUUAUG | -0.682
26 | GACCAAUCUGCCCUCAGAGCUCGAGAACAUCUUCGGAUGCAGAGGAGGCAGGCUUCGGUGGCGCGAUAGCGCAAACGUCCUCAACCUCCAAUGCAUCCCCCCACAUGAUGAUGCCUGAUGAGCCUUGGUUUUUUG | -1.6
27 | GACCAAUCUGCCCUCAGAGCUCGAGAACAUCUUCGGAUGCAGAGGAGGCAGGCUUCGGUGGCGCGAUAGCGCAAACGUCCUCAACCUCCAAUGCAUCCCACCGCAUGAUAAUGCCUGAAGAGCCUUGGUUUUUUG | -6.42
28 | GACCAAUCUGCCCUCAGAGCUCGAGAACAUCUUCGGAUGCAGAGGAGGCAGGCUUCGGUGGCGCGAUAGCGCAAACGUCCUCAACCUCCAAUGCAUCCCACCACAUGGUGAUGCCAGAAGAGUCUUGGUUUUUUG | -5.63
29 | GACCAAUCUGCCCUCAGAGCUCGAGAACAUCUUCGGAUGCAGAGGAGGCAGGCUUCGGUGGCGCGAUAGCGCAAACGUGCUCAACCUCCAAUGCAUCCCACCACAUGAUGAUGCCUGAAGAGCCUUGGUUUUUUG | -2.94
30 | GACCAAUCUGCCCUCAGAGCUCGAGAACAUCUUCGGAUGCAGAGGAGGCAGGCUUCGGUGGCGCGAUAGCGCAAACGUUCUCAACAUCCAAUGCAUCCCACCACAUGAUGAUGCUUGAAGAGCCUUGGUUUUUUG | -3.26
31 | GACCAAUCUGCCCUCAGAGCUCGAGAACAUCUUCGGAUGCAGAGGAGGCAGGCUUCGGUGGCGCGAUAGCGCAAACGUCCUCAACCUAAAAUGCAUCCCACCACAUGAUGAGGCCUGACGAGCCUUGGUUUUUUG | -2.76
32 | GACCAAUCUGCCCUCAGAGCUCGAGAACAUCUUCGGAUGCAGAGGAGGCAGGCUUCGGUGGCGCGAUAGCGCAAACGUCCUCAACCUUCAAUGCAUCCCACCACAUGAUGAUGGCUGUAGAGCCUUGGUUUUUUG | -3.36
33 | GACCAAUCUGCCCUCAGAGCUCGAGAACAUCUUCGGAUGCAGAGGAGGCAGGCUUCGGUGGCGCGAUAGCGCAAACGUCCUCAACCUCAAAUGCAUCCCACCACAUGAUGAUGCCUGUAGAGCCUUGGUUUUUUG | -1.26
34 | GACCAAUCUGCCCUCAGAGCUCGAGAACAUCUUCGGAUGCAGAGGAGGCAGGCUUCGGUGGCGCGAUAGCGCAAACGUCCUCAACCUCCAAUGAAUCCCACCACAUGAUGAUGCCUGAAGAGCCUUGGUUUUUUG | -0.492
35 | GACCAAUCUGCCCUCAGAGCUCGAGAACAUCUUCGGAUGCAGAGGAGGCAGGCUUCGGUGGCGCGAUAGCGCAAACGUCCUCAACCUCCAAUGGAUCCCACCACAUGAUGAUGCCUGAAGAGCCUUGGUUUUUUG | -0.66
36 | GACCAAUCUGCCCUCAGAGCUCGAGAACAUCUUCGGAUGCAGAGGAGGCAGGCUUCGGUGGCGCGAUAGCGCAAACGUCCUCAACCUCCAAUGCAUUCCACCACAUGAUGAUGCCUGAAGAGCCUUGGUUUUUUG | -0.11
37 | GACCAAUCUGCCCUCAGAGCUCGAGAACAUCUUCGGAUGCAGAGGAGGCAGGCUUCGGUGGCGCGAUAGCGCAAACGUCCUCAACCUCCAAUGCAUCCCAGCACAUGAUGAUGCCUGAUGAGCCUUGGUUUUUUG | -1.93
38 | GACCAAUCUGCCCUCAGAGCUCGAGAACAUCUUCGGAUGCAGAGGAGGCAGGCUUCGGUGGCGCGAUAGCGCAAACGUCCUCAACCUCCAAUGCAUCCCAUCACAUGAUUAUGCCUGAAGAGCCUUGGUUUUUUG | -1.75
39 | GACCAAUCUGCCCUCAGAGCUCGAGAACAUCUUCGGAUGCAGAGGAGGCAGGCUUCGGUGGCGCGAUAGCGCAAACGUCCUCAACCUCCAAUGCAUCCCAUCACAUGAUGAUGCCUGAAGAACCUUGGUUCUUUG | -1.18
40 | GACCAAUCUGCCCUCAGAGCUCGAGAACAUCUUCGGAUGCAGAGGAGGCAGGCUUCGGUGGCGCGAUAGCGCAAACGUCCUCAACCUCCAAUGCAUCCCACGACAUGAUGAUGCCUGAAGAGCCUUGGUUUUUUG | -5.02
41 | GACCAAUCUGCCCUCAGAGCUCGAGAACAUCUUCGGAUGCAGAGGAGGCAGGCUUCGGUGGCGCGAUAGCGCAAACGUCCUCAACCUCCAAUGCAUCCCACCAUAUGAUGAUGCCUGAAGAGCCUUGGUUUUUUG | 0.181
42 | GACCAAUCUGCCCUCAGAGCUCGAGAACAUCUUCGGAUGCAGAGGAGGCAGGCUUCGGUGGCGCGAUAGCGCAAACGUCCUCAACCUCCAAUGCAUCCCACCACAUGAUGAUGGCUGAAGAGCCUUGGUUUUUUG | -2.17
